T1: YbbP (E. coli, UniProt P77504 1-804)
T1 sequence: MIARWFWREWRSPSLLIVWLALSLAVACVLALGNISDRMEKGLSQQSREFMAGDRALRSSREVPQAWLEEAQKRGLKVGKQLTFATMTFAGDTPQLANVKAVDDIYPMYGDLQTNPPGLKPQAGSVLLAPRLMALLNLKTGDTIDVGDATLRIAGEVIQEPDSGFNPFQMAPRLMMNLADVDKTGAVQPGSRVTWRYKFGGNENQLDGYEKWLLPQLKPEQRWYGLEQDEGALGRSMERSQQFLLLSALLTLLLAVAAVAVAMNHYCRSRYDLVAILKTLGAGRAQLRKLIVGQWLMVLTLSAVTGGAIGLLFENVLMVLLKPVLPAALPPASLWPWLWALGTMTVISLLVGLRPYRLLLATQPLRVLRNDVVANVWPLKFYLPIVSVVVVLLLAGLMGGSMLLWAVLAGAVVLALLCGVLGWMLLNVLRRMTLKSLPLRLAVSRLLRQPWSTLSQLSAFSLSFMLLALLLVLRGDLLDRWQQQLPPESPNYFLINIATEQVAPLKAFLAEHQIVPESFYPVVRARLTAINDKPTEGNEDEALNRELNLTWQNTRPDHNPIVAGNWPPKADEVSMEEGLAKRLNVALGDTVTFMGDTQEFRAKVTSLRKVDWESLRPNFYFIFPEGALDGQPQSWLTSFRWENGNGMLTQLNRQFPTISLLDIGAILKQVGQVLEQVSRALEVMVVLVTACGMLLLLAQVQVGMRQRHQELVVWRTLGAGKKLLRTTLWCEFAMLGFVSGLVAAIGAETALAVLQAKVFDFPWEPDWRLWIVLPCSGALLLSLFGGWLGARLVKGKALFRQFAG


Biological target: T1, YbbP
Test: cryo-EM structure

| stoichiometry N | Binder |
| --- | --- |
| 2 | YbbA (natural protein, E. coli) MPAENIVEVHHLKKSVGQGEHELSILTGVELVVKRGETIALVGESGSGKSTLLAILAGLDDGSSGEVSLVGQPLHNMDEEARAKLRAKHVGFVFQSFMLIPTLNALENVELPALLRGESSAESRNGAKALLEQLGLGKRLDHLPAQLSGGEQQRVALARAFNGRPDVLFADEPTGNLDRQTGDKIADLLFSLNREHGTTLIMVTHDLQLAARCDRCLRLVNGQLQEEA |
| 1 | TesA Ser36Ala (enzyme, E. coli, UniProt P0ADA1 27-208, looked up) ADTLLILGDALSAGYRMSASAAWPALLNDKWQSKTSVVNASISGDTSQQGLARLPALLKQHQPRWVLVELGGNDGLRGFQPQQTEQTLRQILQDVKAANAEPLLMQIRLPANYGRRYNEAFSAIYPKLAKEFDVPLLPFFMEEVYLKPQWMQDDGIHPNRDAQPFIADWMAKQLQPLVNHDS |
